Results as given in paper PMC12852381 (2025).

Target: DENV-2 Envelope protein (DENV E dimeric protein) (Dengue virus type 2; strain of the BLI …, UniProt P14340)
Assay: BLI; Octet RED 96, 24 °C, 1,000 rpm; CR3022 (5 µg/ml) loaded on AHC (anti-hIgG Fc capture) sensors; DENV E dimeric protein diluted three-fold from 6,000 nM; 50 mM Tris, 150 mM NaCl, 0.5% glycerol, pH 8.0; global 1:1 fit
Conditions: both partners purified

B1: CR3022, an antibody against the SARS-CoV-2 spike protein (antibody, V domains shown)
VH: EVQLVQSGTEVKKPGESLKISCKGSGYGFITYWIGWVRQMPGKGLEWMGIIYPGDSETRYSPSFQGQVTISADKSINTAYLQWSSLKASDTAIYYCAGGSGISTPMDVWGQGTTVTVSS
VL: not shown
With B1 as the binder, how does the Kd read?
The Kd was 2830 nM.
